Measured values taken from the supplement of paper PMC7877785.
± gives the uncertainty stated by the source.

Test: self-splicing fitness, log relative to wild type (ln ratio); higher = more splicing; Tetrahymena group I intron in knt gene, E. coli kanamycin selection, DiMSum; sequences stand for … in CUCUCU…GGAGGGAAAAGUUAUCAGGCAUGCACCUGGUAGCUAGUCUUUAAACCAAUAGAUUGCAUCGGUUUAAAAGGCAAGACCGUCAAAUUGCGGGAAAGGGGUCAACAGCCGUUCAGUACCAAGUCUCAGGGGAAACUUUGAGAUGGCCUUGCAAAGGGUAUGGUAAUAAGCUGACGGACAUGGUCCUAACCACGCAGCCAAGUCCUAAGUCAACAGAUCUUCUGUUGAUAUGGAUGCAGUUCACAGACUAAAUGUCGGUCGGGGAAGAUGUAUUCUUCUCAUAAGAUAUAGUCGGACCUCUCCUUAAUGGGAGCUAGCGGAUGAAGUGAUGCAACACUGGAGCCGCUGGGAACUAAUUUGUAUGCGAAAGUAUAUUGAUUAGUUUUGGAGUACUCGUGGUCG
Summary of the method: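 Fitness was computed with DiMSum as the error-weighted combination of replicate fold changes, kanamycin versus none, each normalised to wild type. The library randomised all eight intron nucleotides of the P1ex region, with the intron placed in the knt kanamycin-resistance gene on pET-22b(+) in E. coli BL21(DE3). Six replicate transformations were grown overnight at 37°C or 30°C on LB agar with or without 25 μg/mL kanamycin, plus 100 μg/mL carbenicillin, 50 μM IPTG and 0.2% rhamnose. Pooled colonies were amplicon-sequenced on an Illumina HiSeq 2500.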

Sequence | self-splicing fitness (ln) (30 °C) | self-splicing fitness (ln) (37 °C)
UGGCAGCAAUAUUACGCCCA | -1.66 ± 0.15 | 0.585 ± 0.24
GCAUAGCAAUAUUACGGCAC | -1.15 ± 0.14 | -0.425 ± 0.15
ACAGAGCAAUAUUACGCUCG | -1.05 ± 0.13 | -1.12 ± 0.2
GCUAAGCAAUAUUACGAACC | -0.414 ± 0.15 | 1.05 ± 0.23
AAUUAGCAAUAUUACGAUCC | -0.705 ± 0.18 | -0.148 ± 0.26
GGCAAGCAAUAUUACGUUCG | -0.0493 ± 0.065 | -0.196 ± 0.08
AUACAGCAAUAUUACGGUGA | -0.847 ± 0.063 | 0.283 ± 0.077
CACCAGCAAUAUUACGGGCA | -1.29 ± 0.069 | -0.343 ± 0.081
GGUAAGCAAUAUUACGACAU | -0.0747 ± 0.013 | -0.0479 ± 0.033
CAGAAGCAAUAUUACGGCUA | 0.172 ± 0.11 | -0.0647 ± 0.084
CUGCAGCAAUAUUACGUUGC | -3.71 ± 0.26 | -2.18 ± 0.29
CCUGAGCAAUAUUACGUACU | -2.04 ± 0.21 | -2.3 ± 0.3
AGGCAGCAAUAUUACGUUAU | -1.78 ± 0.08 | -1.78 ± 0.11
UCCCAGCAAUAUUACGUGAU | -2.17 ± 0.076 | -1.52 ± 0.12
AGGUAGCAAUAUUACGGCGG | -1.955 ± 0.016 | -1.11 ± 0.034
GUGUAGCAAUAUUACGCUUG | -1.07 ± 0.16 | -1.57 ± 0.27
GUCAAGCAAUAUUACGCGCU | -1.88 ± 0.092 | -0.425 ± 0.087
CUCCAGCAAUAUUACGGCAC | -3.68 ± 0.23 | -3.27 ± 0.47
GCGUAGCAAUAUUACGUAGG | -3.73 ± 0.22 | -2.02 ± 0.19
GCCAAGCAAUAUUACGACAC | -0.962 ± 0.06 | -0.0161 ± 0.08
AGGUAGCAAUAUUACGAUCG | -0.106 ± 0.015 | 0.121 ± 0.035

Sequence | self-splicing fitness (ln) (30 °C) | self-splicing fitness (ln) (37 °C)
CACGAGCAAUAUUACGGCCG | -0.354 ± 0.094 | -0.105 ± 0.13
AGCGAGCAAUAUUACGAUGA | -2.57 ± 0.44 | –
UCACAGCAAUAUUACGUUGA | -2.56 ± 0.11 | -2.1 ± 0.11
UUAAAGCAAUAUUACGCAUU | -2.76 ± 0.15 | -2.86 ± 0.27
UUUCAGCAAUAUUACGCGGU | -3.46 ± 0.25 | -1.92 ± 0.2
CCUUAGCAAUAUUACGCGUU | -3.55 ± 0.21 | -2.12 ± 0.16
ACCCAGCAAUAUUACGUGUU | -1.45 ± 0.047 | -0.111 ± 0.061
ACUCAGCAAUAUUACGAUCG | -1.54 ± 0.074 | -0.221 ± 0.12
CGUCAGCAAUAUUACGGGAA | -3.68 ± 0.43 | -1.18 ± 0.18
AGCAAGCAAUAUUACGAAUG | -3.77 ± 0.18 | -1.71 ± 0.13
AUUCAGCAAUAUUACGAUGA | -0.652 ± 0.14 | -0.36 ± 0.15
CAACAGCAAUAUUACGCUCA | -1.15 ± 0.096 | -1.4 ± 0.12
GAGGAGCAAUAUUACGCUUU | – | -2.06 ± 0.41
GGUCAGCAAUAUUACGUUCG | -0.853 ± 0.093 | 0.373 ± 0.13
GAGCAGCAAUAUUACGACAG | -3.25 ± 0.21 | -2.6 ± 0.27
CUAAAGCAAUAUUACGGCUC | -3.26 ± 0.4 | –
CCGAAGCAAUAUUACGUUGG | -3.26 ± 0.19 | -2.16 ± 0.19
CCGAAGCAAUAUUACGACCG | -0.936 ± 0.13 | -0.0137 ± 0.17
AAAUAGCAAUAUUACGUUUG | -2.04 ± 0.1 | -1.49 ± 0.11
CGUGAGCAAUAUUACGGGGA | -3.34 ± 0.4 | -3.62 ± 0.42
AGUUAGCAAUAUUACGCAAC | -2.75 ± 0.24 | -3.1 ± 0.37

Sequence | self-splicing fitness (ln) (30 °C) | self-splicing fitness (ln) (37 °C)
UACAAGCAAUAUUACGUCGC | -2.94 ± 0.11 | -2.51 ± 0.14
CUUCAGCAAUAUUACGACAA | -2.42 ± 0.21 | -2.52 ± 0.31
UGUCAGCAAUAUUACGGCCC | -1.78 ± 0.41 | -0.199 ± 0.4
GAGUAGCAAUAUUACGUGAG | -2.5 ± 0.081 | -1.28 ± 0.12
UCUGAGCAAUAUUACGAAAC | -2.45 ± 0.31 | –
GGUGAGCAAUAUUACGGGUC | -1.98 ± 0.11 | -2.4 ± 0.15
GUUGAGCAAUAUUACGCGGU | -3.32 ± 0.41 | -2.73 ± 0.34
UCUGAGCAAUAUUACGACGU | -0.648 ± 0.13 | 0.778 ± 0.13
AAAAAGCAAUAUUACGGGGC | -3.33 ± 0.16 | -2.43 ± 0.18
ACCUAGCAAUAUUACGGACG | -0.864 ± 0.07 | -0.114 ± 0.1
GGUGAGCAAUAUUACGGCUU | -1.7 ± 0.16 | -0.614 ± 0.17
CUUCAGCAAUAUUACGUGGU | -3.25 ± 0.21 | -2.22 ± 0.24
CCCAAGCAAUAUUACGGGUU | -2.98 ± 0.12 | -2.9 ± 0.2
UUAAAGCAAUAUUACGUGAA | -1.8 ± 0.13 | -0.0245 ± 0.13
CGGCAGCAAUAUUACGCUAA | -1.59 ± 0.1 | -2.03 ± 0.15
AGAAAGCAAUAUUACGGACG | -0.883 ± 0.085 | -0.116 ± 0.13
GCUGAGCAAUAUUACGGGGA | -2.81 ± 0.3 | -2.03 ± 0.32
CCAGAGCAAUAUUACGCAGU | -3.22 ± 0.13 | -3.42 ± 0.21
CUCUAGCAAUAUUACGGGAC | -2.77 ± 0.19 | -3.65 ± 0.46
